# Values of other authors in patent US20170290929A1, “GRP78 TARGETED CONJUGATES” (University of Iowa Research Foundation, priority 2014, published 2017).
# Ends that are not written are not given here.
# Biological target: GRP78 (Homo sapiens, UniProt P11021)
# Conditions: cell free binding assays
# Sequence of GRP78 (P11021 19-654, species assumed): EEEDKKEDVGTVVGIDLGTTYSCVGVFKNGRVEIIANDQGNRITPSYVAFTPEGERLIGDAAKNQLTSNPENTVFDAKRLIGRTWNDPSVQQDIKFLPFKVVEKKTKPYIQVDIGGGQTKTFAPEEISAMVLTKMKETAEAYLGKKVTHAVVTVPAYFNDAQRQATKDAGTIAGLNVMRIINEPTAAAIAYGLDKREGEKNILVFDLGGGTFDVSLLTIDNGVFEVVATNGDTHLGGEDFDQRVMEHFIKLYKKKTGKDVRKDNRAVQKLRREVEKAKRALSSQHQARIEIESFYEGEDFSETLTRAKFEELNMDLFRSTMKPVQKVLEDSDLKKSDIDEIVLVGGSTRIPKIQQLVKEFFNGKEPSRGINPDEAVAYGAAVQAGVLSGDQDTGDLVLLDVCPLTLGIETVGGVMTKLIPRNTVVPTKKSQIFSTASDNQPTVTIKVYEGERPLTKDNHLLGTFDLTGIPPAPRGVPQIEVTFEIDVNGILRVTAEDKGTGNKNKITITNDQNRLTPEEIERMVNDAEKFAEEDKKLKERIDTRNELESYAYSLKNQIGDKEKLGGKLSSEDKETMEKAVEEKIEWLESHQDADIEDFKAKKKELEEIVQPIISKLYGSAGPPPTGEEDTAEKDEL
substance,measurement,value
"PEP42: 13-mer cyclic peptide, amino acid sequence CTVALPGGYVRKC (SEQ ID NO:1) (also: cyclic)",binding with GRP78,shown to bind with GRP78
